Positions count from the first letter of the chain named.
Experiments:
Experiment in all cases: EMSA
Conditions in all cases: 50 mM Tris-HCl pH 8.0, 100 mM NaCl, 40% glycerol, 5 mM DTT, 2 mM EDTA, 4 °C 1 h; 10% native PAGE in 0.5x TBE at 4 °C
[1] = target: T1, CutR Q38A Q38A (Mycobacterium sp. strain JC1) (UniProt D5G1X9)
T1 sequence: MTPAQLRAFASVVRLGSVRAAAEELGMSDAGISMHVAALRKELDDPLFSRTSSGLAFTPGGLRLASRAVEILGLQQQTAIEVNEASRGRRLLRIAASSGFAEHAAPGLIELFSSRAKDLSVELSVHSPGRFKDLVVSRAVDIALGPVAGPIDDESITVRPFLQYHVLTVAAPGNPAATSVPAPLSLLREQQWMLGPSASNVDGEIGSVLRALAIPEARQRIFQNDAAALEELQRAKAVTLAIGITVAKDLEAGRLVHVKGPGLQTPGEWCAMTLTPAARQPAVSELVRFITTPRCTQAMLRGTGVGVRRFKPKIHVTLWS

[2] = target: T2, CutR Q5A Q5A (Mycobacterium sp. strain JC1) (UniProt D5G1X9)
T2 sequence: T1 sequence with Q5A, A38Q

[3] = target: T3, CutR R19A R19A (Mycobacterium sp. strain JC1) (UniProt D5G1X9)
T3 sequence: T1 sequence with R19A, A38Q

[4] = target: T4, CutR R40A R40A (Mycobacterium sp. strain JC1) (UniProt D5G1X9)
T4 sequence: T1 sequence with A38Q, R40A

[5] = target: T5, CutR R7A R7A (Mycobacterium sp. strain JC1) (UniProt D5G1X9)
T5 sequence: T1 sequence with R7A, A38Q

ACCCCGAGTTAAGTGATTCCTTAACTCGCTATTGACGCCATCGCGGCGGCAACGGAAACTAGCCACTTCAGCCACGACGTTGTGAGGATGATCACATGCAA (double strand) [IR1 to CRP motif fragment (101 bp)]
binding [1]: binds | binding [2]: binds | binding [3]: binds | binding [4]: no binding | binding [5]: binds

Reference: paper PMC12609908
